Patent US20150087581A1 (AURIGENE DISCOVERY TECHNOLOGIES, published 2015)
Bridges are numbered along the chain shown (N, C = ends). Where no end group is shown, it is not given here. [ ]: non-standard residue; d: D form. The star is where a group is joined. Biotin = O=C1N[C@H]2[C@H](CS[C@H]2CCCCC(=O)*)N1; Palmitoyl = CCCCCCCCCCCCCCCC(=O)*; R5 = C=CCCC[C@@](C)(N)C(=O)O; Octanoyl = CCCCCCCC(=O)*; Hexanoyl = CCCCCC(=O)*; Ahx = NCCCCCC(=O)O

The binders below were run against hPDL1 expressed on MDA-MB231 cells (human, UniProt Q9NZQ7 19-290) (assay: cell-based or functional assay).
hPDL1 expressed on MDA-MB231 cells, sequence (Q9NZQ7 19-290): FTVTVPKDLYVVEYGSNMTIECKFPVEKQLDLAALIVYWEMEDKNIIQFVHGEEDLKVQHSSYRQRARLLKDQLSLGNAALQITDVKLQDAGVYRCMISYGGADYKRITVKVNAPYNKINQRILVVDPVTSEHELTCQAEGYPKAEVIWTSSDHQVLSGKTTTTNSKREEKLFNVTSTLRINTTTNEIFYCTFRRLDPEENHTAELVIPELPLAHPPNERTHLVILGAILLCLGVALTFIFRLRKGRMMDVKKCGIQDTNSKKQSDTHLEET

Binder	Percent rescue (100 nM, compared with 100 nM Comp 8) in mouse splenocyte proliferation CFSE based assay [%]
SNTSESFKFRVTQLAPK(Octanoyl)AQIKE-NH2 (not fully specified (residue 8)) [Compound 45]	68
LAPKFRVTQLAPKAQIKE-NH2 (not fully specified (residue 4); printed as LAPK(LAP)FRVTQLAPKAQIKE-NH2) [Compound 38]	51.5
SNTSESFKLAPKAQIKE-NH2 (not fully specified (residue 8)) [Compound 30]	58.8
SNTSESFKFRVTQLAPKAQIK(Octanoyl)E-NH2 (not fully specified (residue 8)) [Compound 46]	67
EKIQAKPAYWNLVKDTQNS-NH2 (not fully specified (residue 14)) [Compound 14]	18
{Biotin-Ahx}-[dS][dN][dT][dS][dE][dS][dF][dK][dF][dR][dV][dT][dQ][dL][dA][dP][dK][dA][dQ][dI][dK][dE]-NH2 (not fully specified (residue 8); printed as Biotin-Ahx-sntsesfk(sntsesf)frvtqlapkaqike-NH2) [Compound 60]	14.9
Hexanoyl-SNTSESFKFRVTQLAPKAQIKE-NH2 (not fully specified (residue 8)) [Compound 21]	76.7
SNTSESFKFK(Palmitoyl)VTQLAPKAQIKE-NH2 (not fully specified (residue 8)) [Compound 40]	82
SNTSESFKFRVTQLAKQIKE-NH2 (not fully specified (residues 8, 16)) [Compound 36]	89.7
SNTSESFFRVTQLAPKAQIKE-NH2 [Compound 26]	86.6
SNTSESFKSNTSESFFRVTQLAPKAQIKE-NH2 [Compound 28]	56.5
Hexanoyl-SNTSESFKFRVTQLAPKAQIKE-NH2 (not fully specified (residue 8)) [Compound 16]	45.8
SNTSESFKFRVTQLAPKAQIKE-NH2 (not fully specified (residue 8); printed as SNTSESFK(LAP)FRVTQLAPKAQIKE-NH2) [Compound 37]	89.6
SNTSESFK-NH2 (not fully specified (residue 8)) [Compound 29]	31.1
EKIQAKPALQTVRFKFSESTNS (not fully specified; Retro inverso (All D-amino acid); branch fsestns on the side chain of lys 15 of the main chain; C-terminal amide) [Compound 49]	73
SNTSESF-NH2 [Compound 1]	96.5
Ac-SNTSESFKFRVTQLAPKAQIKE-NH2 (not fully specified (residue 8)) [Compound 17]	32.9
SNTSESFKFRVTQLAPKAQIKE-NH2 [Compound 27]	73.6
SNTSESFFRVTQKLAPKAQIKE-NH2 (not fully specified (residue 13)) [Compound 42]	52.9
SNQTDKLAAFPEDSQPGQD-NH2 [Compound 3]	37.3
SNTSESFKFRVTQLAPKAQIKE-NH2 (not fully specified (residue 8)) [Compound 11]	12.4
SNTSESFKFRVTQLAPKAQIKE-NH2 (not fully specified (residue 8)) [Compound 20]	27.8
SNTSESFKFRVTQKAQIKE-NH2 (not fully specified (residue 8)) [Compound 31]	11.3
FRVTQLAPKAQIKE-NH2 [Compound 43]	66
SNTSESF[R5]PKA[R5]SNTSESF-NH2 (staple 8-12; not fully specified; printed as SNTSESFR5PKAR5SNTSESF) [Compound 22]	71.4
SNTSESFKFRVTQLAQIKE-NH2 (not fully specified (residue 8)) [Compound 25]	27.6
SNTSESFKKAQIKE-NH2 (not fully specified (residue 8)) [Compound 32]	14.8
SNTSESFKFRVTQLAP-NH2 (not fully specified (residue 8)) [Compound 41]	5.1
SNTSESFKFRVTQKKAQIKE-NH2 (not fully specified (residues 8, 14)) [Compound 35]	81.2
EDRSQPGQDCR-NH2 [Compound 4]	74.7
